Measurements: US10782287B2, “Enzyme coupled assay for quantification of protein and peptide binding by SAMDI mass spectrometry” (NORTHWESTERN UNIVERSITY, priority 2015, dated 2020)
Ends that are not written are not given here.

Biological target: T1, Cbx1 fusion protein (Cbx1 chromodomain-KDAC8) (Homo sapiens, UniProt P83916)
T1 construct: constructing E. coli-based vectors containing chromodomains and KDAC8 separated by a short linker; made in house; host or cells: E. coli
Test: Enzyme-coupled SAMDI mass spectrometry assay: deacetylation of an immobilized KDAC8 substrate reports chromodomain binding to a co-immobilized ligand
Type: biochemical
Details: monolayer presenting substrate GMK^AcFGC and the ligand; when the chromodomain binds its ligand on the monolayer
From the text: In this example, two peptides—a methylated peptide that binds the chromodomain and an acetylated peptide that is a substrate for the deacetylase—are immobilized to a monolayer presenting maleimide groups against a background of tri(ethylene glycol) groups. The density of the maleimide group is controlled precisely (Houseman et al., Langmuir 19: 1522-1531 (2003)) and the relative densities of the two peptides are controlled either by immobilizing them as a mixture at defined concentrations or by immobilizing the first for a time that gives incomplete immobilization followed by addition of the second peptide. Fusion proteins are prepared by first constructing E. coli-based vectors containing chromodomains and KDAC8 separated by a short linker. The vector is designed to contain a restriction site allowing for the insertion of any chromodomain of interest containing the complementary restriction sites. In this way, the same plasmid containing KDAC8 may be used to rapidly create several chromodomain fusions. Monolayers are treated with the chromodomain-KDAC8 fusion protein for different times, the reactions are stopped by rinsing and the spots are analyzed by SAMDI mass spectrometry to identify an initial velocity for the reaction, υo, which is the measurable parameter that is used to assess the protein-ligand interaction. […]

T1 sequence (P83916 21-79 limits assumed): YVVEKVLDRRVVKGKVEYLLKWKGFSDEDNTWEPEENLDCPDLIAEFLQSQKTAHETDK

Substance: QTARK^MeSTGC: methylated H3K9-based peptide ligand for the Cbx1 chromodomain, immobilized on the monolayer via cysteine (QTARK(Me)STGC; also: immobilized on the monolayer via cysteine)
- rate acceleration for the deacetylation reaction: approximately 20 fold
